According to patent publication US20210221875A1 (Chugai, published 2021):
Residue numbers refer to the chain shown, from its start. Each block holds one binder with its values, some of them ahead of it.

Legend:
[1] = target: T1, Human aggrecan G1-IGD-G2 domain with Flag-tag on its C-terminus (human, UniProt P16112 17-675); test: BLI (Octet RED), biotin-labeled human aggrecan G1-IGD-G2-Flag on streptavidin sensor, 27 C
T1 construct: used unlabelled as Biacore analyte; also called human aggrecan G1-IGD-G2-Flag; human Aggrecan G1G2 flag

biotinylated plexin A1 = target: T2, biotinylated plexin A1 (human, UniProt Q9UIW2 27-1253, biotin on the AviTag sequence (BirA co-expression)); test: BLI (Octet), in the same way as in Example 3
T2 construct: extracellular region of plexin A1 linked to AviTag and FLAG tag; also called biotin-labeled human plexin A1; human plexin A1
T2 sequence (Q9UIW2 other isoform, or with tags, fused parts or gaps limits assumed): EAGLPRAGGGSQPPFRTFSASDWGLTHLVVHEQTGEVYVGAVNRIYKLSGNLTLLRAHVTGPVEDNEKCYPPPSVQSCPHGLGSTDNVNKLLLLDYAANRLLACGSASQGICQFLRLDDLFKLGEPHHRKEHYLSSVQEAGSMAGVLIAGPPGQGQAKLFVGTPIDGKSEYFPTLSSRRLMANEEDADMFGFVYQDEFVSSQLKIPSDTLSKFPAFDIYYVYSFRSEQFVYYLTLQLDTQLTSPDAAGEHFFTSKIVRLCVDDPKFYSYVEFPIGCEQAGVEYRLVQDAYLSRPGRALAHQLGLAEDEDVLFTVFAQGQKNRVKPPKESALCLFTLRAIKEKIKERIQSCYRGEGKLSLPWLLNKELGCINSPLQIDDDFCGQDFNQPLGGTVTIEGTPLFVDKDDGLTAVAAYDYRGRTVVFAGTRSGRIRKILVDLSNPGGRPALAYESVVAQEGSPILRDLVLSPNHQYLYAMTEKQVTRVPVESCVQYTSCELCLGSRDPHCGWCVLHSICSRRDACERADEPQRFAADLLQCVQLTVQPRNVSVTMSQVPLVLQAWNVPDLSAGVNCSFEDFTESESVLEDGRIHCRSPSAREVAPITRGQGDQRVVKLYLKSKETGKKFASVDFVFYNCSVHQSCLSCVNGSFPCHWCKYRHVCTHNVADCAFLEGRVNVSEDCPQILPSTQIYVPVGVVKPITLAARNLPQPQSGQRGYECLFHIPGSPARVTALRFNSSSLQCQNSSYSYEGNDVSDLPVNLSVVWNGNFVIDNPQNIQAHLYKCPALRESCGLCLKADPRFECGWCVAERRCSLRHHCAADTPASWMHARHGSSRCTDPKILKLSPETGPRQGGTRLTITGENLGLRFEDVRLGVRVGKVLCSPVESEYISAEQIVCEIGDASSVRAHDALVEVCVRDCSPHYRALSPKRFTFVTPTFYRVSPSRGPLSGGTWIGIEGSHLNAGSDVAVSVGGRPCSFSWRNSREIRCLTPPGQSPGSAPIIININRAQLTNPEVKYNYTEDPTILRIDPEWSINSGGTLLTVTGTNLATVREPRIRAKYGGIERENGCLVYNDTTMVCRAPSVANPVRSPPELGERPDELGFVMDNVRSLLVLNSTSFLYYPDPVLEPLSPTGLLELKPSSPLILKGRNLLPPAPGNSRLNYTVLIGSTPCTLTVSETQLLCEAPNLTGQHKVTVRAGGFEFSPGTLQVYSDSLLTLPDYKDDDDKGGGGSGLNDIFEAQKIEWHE

binding result [1]: binds
B1: hA2R3p.038-G1mISHI01/VK1.39-k0MT (antibody, human IgG1, kappa, V domains shown)
VH: QLQLVESGGGLVQAGGSLRLSCAASGRTFRTYAMGWFRQAPGKEREFVSSISGSGGSKIYADSVKGRFTISRDNAKDTVNLQMNSLKPEDTAVYYCAVARGYYGTMASDPGLYDYWGQGTQVTVSS
VL: DIQMTQSPSSLSASVGDRVTITCRASQSISSYLNWYQQKPGKAPKLLIYAASSLQSGVPSRFSGSGSGTDFTLTISSLQPEDFATYYCLQFDSYPLTFGGGTKVEIKR

binding result (biotinylated plexin A1): no binding
B2: PX02-R4_017-G1mISHI01/VK1-39-k0MT (antibody, human IgG1, kappa, V domains shown)
VH: QVQLVESGGGLVQPGGSLRLSCTASGISFSISTMGWYRQAPGKQRELVATITSGGEAYYANSMKDRFTISRDNAENTVYLQMNRLKPEDSAVYYCNTKFPWSTDWNARGQGTQVTVSG
VL: B1 VL
notes: uncleaved; light chain printed once for the five molecules

binding result (biotinylated plexin A1): no binding
B3: PX03-R4_009-G1mISHI01/VK1-39-k0MT (antibody, human IgG1, kappa, V domains shown)
VH: B2 VH with V2L, T52A, M63V, D65G, D72E, N73Y, Y79F
VL: B1 VL
notes: as for B2

binding result (biotinylated plexin A1): no binding
B4: PX03-R2_006-G1mISHI01/VK1-39-k0MT (antibody, human IgG1, kappa, V domains shown)
VH: B2 VH with V2L, T52A, M63V, D65G
VL: B1 VL
notes: as for B2
